{"source": "paper PMC12308385", "about": "“Structural and Functional Characteristics of Potent Dioxygenase from Moesziomyces aphidis” (JACS Au, 2025)", "molecules": {"B1": {"name": "ADO (TtCCO) (Thermothelomyces thermophilus ATCC 42464) (protein)", "chain": "MAHIHDLAPEVSNYSSGRLTPPTPVRFPRTPVFASMNKPCRFEGDVFDLEVSGAIPPDIDGTFFRVQPDHRFPPLFEDDIHFNGDGSVTAIRISGGHADLRQRYVRTERYLLETRARRSLFGRYRNPWTDNESVRGVIRTASNTNVVFWRGALLAMKEDGPPFAMDPVTLETLGRYDFEGQILSPTFTAHPKIDPDTGEMVCFAYEAGGDGSDCSVDVAVWTVDADGKKVEECWYKAPFAGMIHDCGITKNWVVLPLTPIKMDLERMKRGGNKFAWDPSEDQWYGVVPRRGAKSDDIIWFRADNGFHGHVAGCYELPSGEIVFDLTVADGNVFFFFPPDDNITPPADGVAKRNRLSSPTVRWIFDPKAKKSAIRTEAAGDADIWVADERVKPALTWPTNGEFSRIDDRYVTKPYRHFWQAVVDPTRPYDFEKCGPPAGGLFNCLGHYTWSDQNYHHGHNTGDPSGDGRSNGSAEEATAGKFGLQDVYFAGPTMTFQEPTFIPRQGAAEGEGYLIALLNHLDELRNDVVIFEARNLGKGPLAVIHLPLKLKLGLHGNWVDSREIEAWRRRRAENGDVGPLRVAKEPLPWQKKFAAAAQNGSNGV", "notes": "purified recombinant; construct details not given; genus given only as T"}, "B2": {"name": "MapADO (Moesziomyces aphidis) (protein)", "chain": "APTATQEPVPVPVTSKAAPSHGYVHPTDILPSGWPTATDLSGGAQPRRFEGTIFDVMTRGTIPKELHGTFYRIMPDYAQPPTYYKGGELNAPIDGDGTVAAFRFKDGKVDYRQRFVETDRFKVERRARKSMYGLYRNPYTHHPCVRQTVESTANTNVVMHAGRFLAMKENGNAYEMDPHTLKTLGYNPFNLPSKTMTAHPKQCSVTGNLVGFGYEAKGLATKDVYYFEVDPSGKVVRDLWLEAPWCAFIHDCALTPNYLVLMLWPFEANLERMKAGGHHWAYDYTKPITWITIPRGAKSKDEVKYWHWKNGMPIHTASGFEDEQGRIIIDSSLVHGNAFPFFPPDSDEQKKKQEADGTPKAQFVRWTIDPRKDNNEQLPDPEVILDTPSEFPQIDNRFMGVEYSSAFINVFVPDRSDGNKNVFQGLNGLAHYKRKEGTTEWYYAGDNCLIQEPVFSPRSKDAPEGDGFVLAIVDRLDLNRSEVVVIDTRDFTKAVAAVQLPFAIRSGIHGQWIPGEVTPDFETKGLVDLPKEEHWAPLSQSPYDPDA"}}, "key": {"[1]": {"target": "T1, MapADO (Moesziomyces aphidis, UniProt W3VHW6)", "T1 construct": "gene PaG_05861", "T1 sequence (W3VHW6 2-548)": "B2 chain", "assay": "X-ray crystal structure (cocrystallization)", "assay_type": "binding", "details": "40-fold molar excess ligand; front pocket at Fe2+"}, "[2]": {"target": "T1, MapADO", "assay": "inhibition of isoeugenol conversion", "assay_type": "cell-based", "details": "equimolar to isoeugenol; enzyme preparation not stated in main text"}, "[3]": {"target": "T1, MapADO", "assay": "inhibition of isoeugenol conversion", "assay_type": "cell-based", "details": "equimolar to isoeugenol; enzyme preparation not stated in main text; suggested competitive"}, "[4]": {"substrate": "CC=Cc1ccc(O)c(OC)c1", "assay": "spectrophotometric monitoring of vanillin formation", "assay_type": "biochemical, Thermothelomyces thermophilus", "details": "co-substrate O2; Fe2+ enzyme", "excerpt": "spectrophotometric monitoring of vanillin formation on ADO (TtCCO)"}, "[5]": {"substrate": "CC=Cc1ccc(O)c(OC)c1", "assay": "spectrophotometric monitoring of vanillin formation", "assay_type": "biochemical, Moesziomyces aphidis", "details": "co-substrate O2; Fe2+ enzyme", "excerpt": "spectrophotometric monitoring of vanillin formation on MapADO"}}, "data": [{"molecule": "COc1cc(C=O)ccc1O", "note": "[compound 1, vanillin]", "values": [{"measurement": "X-ray crystal structure (cocrystallization)", "setting": "[1]", "value": "In the 1-bound structure (PDB ID: 9G89), interactions include hydrophobic contacts"}, {"measurement": "% reduction of 1a conversion", "setting": "[2]", "value": 60, "unit": "%"}]}, {"molecule": "COc1cccc(C=O)c1O", "note": "[compound 5, ortho-vanillin]", "values": [{"measurement": "% inhibition", "setting": "[3]", "value": 25, "unit": "%"}]}, {"molecule": "O=Cc1ccc(O)cc1", "note": "[compound 3, 4-hydroxybenzaldehyde]", "values": [{"measurement": "X-ray crystal structure (cocrystallization)", "setting": "[1]", "value": "The 3-bound structure (PDB ID: 9G8A) shows similar hydrophobic interactions and hydrogen bonds"}]}, {"molecule": "B1", "values": [{"measurement": "Km", "setting": "[4]", "value": "2.240 ± 0.264", "unit": "mM"}, {"measurement": "Vmax", "setting": "[4]", "value": 43, "unit": "µmol/min/mg"}, {"measurement": "kcat", "setting": "[4]", "value": 44, "unit": "s⁻¹"}]}, {"molecule": "B2", "values": [{"measurement": "Km", "setting": "[5]", "value": "0.118 ± 0.013", "unit": "mM"}, {"measurement": "Vmax", "setting": "[5]", "value": 231, "unit": "µmol/min/mg"}, {"measurement": "kcat", "setting": "[5]", "value": 238, "unit": "s⁻¹"}]}]}
